Experimental data as given in patent US20240270846A1 (published 2024).

Biological target: T1, CD3 epsilon homodimer protein (UniProt P07766 23-126)
T1 construct: also called CD3 (CD3 epsilon)
Assay: SPR Biacore T200, antibody over immobilised CD3e homodimer;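 further: CD3 epsilon homodimer amine-coupled on a CM4 chip, run at 25 °C in HBS-EP+, Z = bound amount of each single-residue H chain variant over that of the parent antibody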

T1 sequence (P07766 23-126): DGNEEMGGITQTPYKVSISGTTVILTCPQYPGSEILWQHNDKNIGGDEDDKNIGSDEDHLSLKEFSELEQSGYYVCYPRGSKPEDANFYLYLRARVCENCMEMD

| ratio of amounts bound (Z=Y/X vs CE115HA000) | Binder |
| --- | --- |
| 0.57 | CE115HA000 A52aE one-arm antibody (antibody, human IgG1, kappa, L234A L235A, N297A, name in Kabat numbering, one-arm antibody) heavy: QVQLVESGGGVVQPGRSLRLSCAASGFTFSNAWMHWVRQAPGKGLEWVAQIKEKSNNYATYYAESVKGRFTISRDDSKNSLYLQMNSLKTEDTAVYYCRYVHYGAYYGVDAWGQGTTVTVSSASTKGPSVFPLAPSSKSTSGGTAALGCLVKDYFPEPVTVSWNSGALTSGVHTFPAVLQSSGLYSLSSVVTVPSSSLGTQTYICNVNHKPSNTKVDKKVEPKSCDKTHTCPPCPAPEAAGGPSVFLFPPKPKDTLMISRTPEVTCVVVDVSHEDPEVKFNWYVDGVEVHNAKTKPREEQYASTYRVVSVLTVLHQDWLNGKEYKCKVSNKALPAPIEKTISKAKGQPREPQVYTLPPSRCELTKNQVSLSCAVKGFYPSDIAVEWESNGQPENNYKTTPPVLDSDGSFFLVSKLTVDKSRWQQGNVFSCSVMHEALHNHYTQKSLSLSPDYKDDDDK EPKSSDKTHTCPPCPAPELLGGPSVFLFPPKPKDTLMISRTPEVTCVVVDVSHEDPEVKFNWYVDGVEVHNAKTKPREEQYNSTYRVVSVLTVLHQDWLNGKEYKCKVSNKALPAPIEKTISKAKGQPREPQVCTLPPSRDELTKNQVSLWCLVKGFYPSDIAVEWESNGQPENNYKTTPPVLDSDGSFFLYSKLTVDKSRWQQGNVFSCSVMHEALHNRYTQKSLSLSP light: DIVMTQSPLSLPVTPGEPASISCRSSQSLVHSNRNTYLHWYQQKPGQAPRLLIYKVSNRFSGVPDRFSGSGSGTDFTLKISRVEAEDVGVYYCGQGTQVPYTFGQGTKLEIKRTVAAPSVFIFPPSDEQLKSGTASVVCLLNNFYPREAKVQWKVDNALQSGNSQESVTEQDSKDSTYSLSSTLTLSKADYEKHKVYACEVTHQGLSSPVTKSFNRGEC |
| 0.81 | CE115HA000 A52aG one-arm antibody (antibody, human IgG1, kappa, L234A L235A, N297A, name in Kabat numbering, one-arm antibody) heavy: QVQLVESGGGVVQPGRSLRLSCAASGFTFSNAWMHWVRQAPGKGLEWVAQIKGKSNNYATYYAESVKGRFTISRDDSKNSLYLQMNSLKTEDTAVYYCRYVHYGAYYGVDAWGQGTTVTVSSASTKGPSVFPLAPSSKSTSGGTAALGCLVKDYFPEPVTVSWNSGALTSGVHTFPAVLQSSGLYSLSSVVTVPSSSLGTQTYICNVNHKPSNTKVDKKVEPKSCDKTHTCPPCPAPEAAGGPSVFLFPPKPKDTLMISRTPEVTCVVVDVSHEDPEVKFNWYVDGVEVHNAKTKPREEQYASTYRVVSVLTVLHQDWLNGKEYKCKVSNKALPAPIEKTISKAKGQPREPQVYTLPPSRCELTKNQVSLSCAVKGFYPSDIAVEWESNGQPENNYKTTPPVLDSDGSFFLVSKLTVDKSRWQQGNVFSCSVMHEALHNHYTQKSLSLSPDYKDDDDK EPKSSDKTHTCPPCPAPELLGGPSVFLFPPKPKDTLMISRTPEVTCVVVDVSHEDPEVKFNWYVDGVEVHNAKTKPREEQYNSTYRVVSVLTVLHQDWLNGKEYKCKVSNKALPAPIEKTISKAKGQPREPQVCTLPPSRDELTKNQVSLWCLVKGFYPSDIAVEWESNGQPENNYKTTPPVLDSDGSFFLYSKLTVDKSRWQQGNVFSCSVMHEALHNRYTQKSLSLSP light: DIVMTQSPLSLPVTPGEPASISCRSSQSLVHSNRNTYLHWYQQKPGQAPRLLIYKVSNRFSGVPDRFSGSGSGTDFTLKISRVEAEDVGVYYCGQGTQVPYTFGQGTKLEIKRTVAAPSVFIFPPSDEQLKSGTASVVCLLNNFYPREAKVQWKVDNALQSGNSQESVTEQDSKDSTYSLSSTLTLSKADYEKHKVYACEVTHQGLSSPVTKSFNRGEC |
